What follows are sequences tested on Escherichia coli TOP10 (assay: shrunken log2 fold change of peptide-encoding DNA abundance (4.5 h post-induction vs induction); higher = less antimicrobial activity (less host growth inhibition)). Conditions: time post-induction: 4.5 h; library: site-saturation at positions 5, 18, 19, 20.
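Note: peptides expressed intracellularly from a pBAD plasmid library in pooled LB shake-flask culture, induced with 0.3% L-arabinose, DNA abundance read by NGS, three biological replicates, DESeq2 with apeglm shrinkage.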

| Sequence | shrunken log2 fold change |
| --- | --- |
| RRIRNRPPRLPRPRPRPYQIPRP | -0.0282 |
| RRIRNRPPRLPRPRPRPYQLPRP | 0.327 |
| RRIRNRPPRLPRPRPRPYQMPRP | -0.246 |
| RRIRNRPPRLPRPRPRPYQNPRP | 0.0156 |
| RRIRNRPPRLPRPRPRPYQTPRP | -0.00141 |
| RRIRNRPPRLPRPRPRPYRIPRP | -0.115 |
| RRIRNRPPRLPRPRPRPYRYPRP | 0.0342 |
| RRIRNRPPRLPRPRPRPYSWPRP | -0.814 |
| RRIRNRPPRLPRPRPRPYTEPRP | -0.695 |
| RRIRNRPPRLPRPRPRPYVPPRP | -0.0142 |
| RRIRNRPPRLPRPRPRPYWHPRP | -0.0277 |
| RRIRNRPPRLPRPRPRPYWPPRP | -0.199 |
| RRIRPRPPRLPRPRPRPAFGPRP | 0.45 |
| RRIRPRPPRLPRPRPRPAFLPRP | -0.0283 |
| RRIRPRPPRLPRPRPRPAGDPRP | 0.387 |
| RRIRPRPPRLPRPRPRPAGFPRP | 0.301 |
| RRIRPRPPRLPRPRPRPAGWPRP | 0.765 |
| RRIRPRPPRLPRPRPRPAHTPRP | -0.0311 |
| RRIRPRPPRLPRPRPRPAKDPRP | -0.111 |
| RRIRPRPPRLPRPRPRPAKMPRP | 0.0216 |
| RRIRPRPPRLPRPRPRPALEPRP | 0.313 |
| RRIRPRPPRLPRPRPRPANVPRP | -0.122 |
| RRIRPRPPRLPRPRPRPANYPRP | 0.0679 |
| RRIRPRPPRLPRPRPRPAPDPRP | 0.309 |
| RRIRPRPPRLPRPRPRPAQRPRP | 0.104 |

| Sequence | shrunken log2 fold change |
| --- | --- |
| RRIRPRPPRLPRPRPRPASFPRP | 0.0681 |
| RRIRPRPPRLPRPRPRPASLPRP | 0.187 |
| RRIRPRPPRLPRPRPRPASYPRP | -0.212 |
| RRIRPRPPRLPRPRPRPATPPRP | 0.216 |
| RRIRPRPPRLPRPRPRPATRPRP | 0.442 |
| RRIRPRPPRLPRPRPRPATYPRP | -0.46 |
| RRIRPRPPRLPRPRPRPAVEPRP | 0.014 |
| RRIRPRPPRLPRPRPRPAVPPRP | 0.1 |
| RRIRPRPPRLPRPRPRPAYFPRP | -0.16 |
| RRIRPRPPRLPRPRPRPAYGPRP | 0.144 |
| RRIRPRPPRLPRPRPRPCDRPRP | 0.0787 |
| RRIRPRPPRLPRPRPRPCFAPRP | 0.0019 |
| RRIRPRPPRLPRPRPRPCHLPRP | -0.148 |
| RRIRPRPPRLPRPRPRPCIFPRP | -0.359 |
| RRIRPRPPRLPRPRPRPCIPPRP | -0.556 |
| RRIRPRPPRLPRPRPRPCIVPRP | -0.199 |
| RRIRPRPPRLPRPRPRPCKDPRP | -0.374 |
| RRIRPRPPRLPRPRPRPCLMPRP | -0.393 |
| RRIRPRPPRLPRPRPRPCMEPRP | -0.106 |
| RRIRPRPPRLPRPRPRPCRGPRP | -0.322 |
| RRIRPRPPRLPRPRPRPCSFPRP | -0.109 |
| RRIRPRPPRLPRPRPRPCSRPRP | 0.0759 |
| RRIRPRPPRLPRPRPRPCTRPRP | 2.07 |
| RRIRPRPPRLPRPRPRPCVKPRP | -0.139 |
| RRIRPRPPRLPRPRPRPCVSPRP | -0.0858 |

| Sequence | shrunken log2 fold change |
| --- | --- |
| RRIRPRPPRLPRPRPRPCYFPRP | -0.0997 |
| RRIRPRPPRLPRPRPRPCYQPRP | -0.565 |
| RRIRPRPPRLPRPRPRPCYWPRP | -0.294 |
| RRIRPRPPRLPRPRPRPDAPPRP | 0.227 |
| RRIRPRPPRLPRPRPRPDAVPRP | 0.325 |
| RRIRPRPPRLPRPRPRPDCCPRP | -0.0125 |
| RRIRPRPPRLPRPRPRPDCLPRP | 0.0136 |
| RRIRPRPPRLPRPRPRPDDFPRP | -0.371 |
| RRIRPRPPRLPRPRPRPDDVPRP | -0.0212 |
| RRIRPRPPRLPRPRPRPDFMPRP | -0.309 |
| RRIRPRPPRLPRPRPRPDHAPRP | 0.218 |
| RRIRPRPPRLPRPRPRPDIYPRP | -0.0306 |
| RRIRPRPPRLPRPRPRPDKLPRP | 0.038 |
| RRIRPRPPRLPRPRPRPDLYPRP | -0.153 |
| RRIRPRPPRLPRPRPRPDMVPRP | -0.177 |
| RRIRPRPPRLPRPRPRPDQDPRP | 0.0461 |
| RRIRPRPPRLPRPRPRPDQVPRP | 0.0258 |
| RRIRPRPPRLPRPRPRPDRLPRP | 0.48 |
| RRIRPRPPRLPRPRPRPDSHPRP | 0.101 |
| RRIRPRPPRLPRPRPRPDSMPRP | -0.326 |
| RRIRPRPPRLPRPRPRPDSQPRP | -0.127 |
| RRIRPRPPRLPRPRPRPDSSPRP | -0.000765 |
| RRIRPRPPRLPRPRPRPDYWPRP | 0.207 |
| RRIRPRPPRLPRPRPRPEALPRP | 0.439 |
| RRIRPRPPRLPRPRPRPEDNPRP | -0.0402 |

| Sequence | shrunken log2 fold change |
| --- | --- |
| RRIRPRPPRLPRPRPRPEEWPRP | -0.0099 |
| RRIRPRPPRLPRPRPRPEHDPRP | -0.00589 |
| RRIRPRPPRLPRPRPRPEHSPRP | -0.0353 |
| RRIRPRPPRLPRPRPRPEIVPRP | 0.0303 |
| RRIRPRPPRLPRPRPRPEMKPRP | -0.0423 |
| RRIRPRPPRLPRPRPRPEMWPRP | 0.579 |
| RRIRPRPPRLPRPRPRPENFPRP | 0.0102 |
| RRIRPRPPRLPRPRPRPENWPRP | 0.264 |
| RRIRPRPPRLPRPRPRPEQHPRP | 0.214 |
| RRIRPRPPRLPRPRPRPERWPRP | 0.56 |
| RRIRPRPPRLPRPRPRPESQPRP | -0.0975 |
| RRIRPRPPRLPRPRPRPETHPRP | 0.221 |
| RRIRPRPPRLPRPRPRPEVSPRP | 0.0949 |
| RRIRPRPPRLPRPRPRPEWLPRP | 0.404 |
| RRIRPRPPRLPRPRPRPEYFPRP | -0.185 |
| RRIRPRPPRLPRPRPRPEYWPRP | -0.035 |
| RRIRPRPPRLPRPRPRPFCIPRP | -0.463 |
| RRIRPRPPRLPRPRPRPFELPRP | -0.284 |
| RRIRPRPPRLPRPRPRPFFLPRP | -0.041 |
| RRIRPRPPRLPRPRPRPFGEPRP | 0.0159 |
| RRIRPRPPRLPRPRPRPFGLPRP | -0.209 |
| RRIRPRPPRLPRPRPRPFGNPRP | -0.146 |
| RRIRPRPPRLPRPRPRPFGQPRP | -0.34 |
| RRIRPRPPRLPRPRPRPFKCPRP | -0.214 |
| RRIRPRPPRLPRPRPRPFKHPRP | 0.0339 |

| Sequence | shrunken log2 fold change |
| --- | --- |
| RRIRPRPPRLPRPRPRPFKKPRP | -0.161 |
| RRIRPRPPRLPRPRPRPFLLPRP | -0.516 |
| RRIRPRPPRLPRPRPRPFNLPRP | -0.771 |
| RRIRPRPPRLPRPRPRPFPGPRP | -0.226 |
| RRIRPRPPRLPRPRPRPFPIPRP | -0.371 |
| RRIRPRPPRLPRPRPRPFPPPRP | -0.0227 |
| RRIRPRPPRLPRPRPRPFQKPRP | -0.163 |
| RRIRPRPPRLPRPRPRPFSDPRP | -0.0761 |
| RRIRPRPPRLPRPRPRPFSNPRP | -0.218 |
| RRIRPRPPRLPRPRPRPFSWPRP | -0.0698 |
| RRIRPRPPRLPRPRPRPFWEPRP | -0.0196 |
| RRIRPRPPRLPRPRPRPFWHPRP | -0.017 |
| RRIRPRPPRLPRPRPRPFYRPRP | 0.0278 |
| RRIRPRPPRLPRPRPRPFYSPRP | -0.161 |
| RRIRPRPPRLPRPRPRPGAEPRP | 0.798 |
| RRIRPRPPRLPRPRPRPGAKPRP | 0.265 |
| RRIRPRPPRLPRPRPRPGANPRP | 0.364 |
| RRIRPRPPRLPRPRPRPGCSPRP | 0.266 |
| RRIRPRPPRLPRPRPRPGDFPRP | -0.0208 |
| RRIRPRPPRLPRPRPRPGDGPRP | 0.979 |
| RRIRPRPPRLPRPRPRPGELPRP | 0.192 |
| RRIRPRPPRLPRPRPRPGFVPRP | 0.143 |
| RRIRPRPPRLPRPRPRPGKMPRP | 0.0379 |
| RRIRPRPPRLPRPRPRPGLCPRP | 0.399 |
| RRIRPRPPRLPRPRPRPGLGPRP | 0.389 |

| Sequence | shrunken log2 fold change |
| --- | --- |
| RRIRPRPPRLPRPRPRPGLRPRP | 3.24 |
| RRIRPRPPRLPRPRPRPGMMPRP | -0.111 |
| RRIRPRPPRLPRPRPRPGMPPRP | -0.074 |
| RRIRPRPPRLPRPRPRPGMTPRP | 0.0694 |
| RRIRPRPPRLPRPRPRPGNQPRP | -0.143 |
| RRIRPRPPRLPRPRPRPGPSPRP | 0.0312 |
| RRIRPRPPRLPRPRPRPGQLPRP | -0.0604 |
| RRIRPRPPRLPRPRPRPGSAPRP | 0.18 |
| RRIRPRPPRLPRPRPRPGSHPRP | 0.142 |
| RRIRPRPPRLPRPRPRPGVSPRP | -0.0412 |
| RRIRPRPPRLPRPRPRPGVVPRP | 0.215 |
| RRIRPRPPRLPRPRPRPGWDPRP | 0.011 |
| RRIRPRPPRLPRPRPRPGYLPRP | -0.129 |
| RRIRPRPPRLPRPRPRPGYMPRP | -0.126 |
| RRIRPRPPRLPRPRPRPHAPPRP | 0.082 |
| RRIRPRPPRLPRPRPRPHCVPRP | -0.0495 |
| RRIRPRPPRLPRPRPRPHDFPRP | -0.145 |
| RRIRPRPPRLPRPRPRPHEDPRP | -0.0757 |
| RRIRPRPPRLPRPRPRPHEKPRP | -0.0384 |
| RRIRPRPPRLPRPRPRPHFCPRP | -0.353 |
| RRIRPRPPRLPRPRPRPHFGPRP | 0.0675 |
| RRIRPRPPRLPRPRPRPHFQPRP | 0.0551 |
| RRIRPRPPRLPRPRPRPHGPPRP | 0.0292 |
| RRIRPRPPRLPRPRPRPHHMPRP | -0.778 |
| RRIRPRPPRLPRPRPRPHIHPRP | -0.82 |
